These results are taken from IntAct's records for PubMed 21596426.

For one test, the target named is h4_human H4C16 (UniProt P62805).
Another test concerns the target h32_human H3C13 (UniProt Q71DI3).

For the substance “Nucleosome-remodeling factor subunit BPTF (Homo sapiens) (from UniProt Q12830-4) F2870A”, in the test with h4_human H4C16, the “effect of a mutation on the interaction” value is “disrupting interaction”.

Consider “Nucleosome-remodeling factor subunit BPTF (Homo sapiens) (from UniProt Q12830-4) W2748E”, for which the “effect of a mutation on the interaction” value with h32_human H3C13 was “disrupting interaction”.
